Biological target: T1, intact recombinant human POSTN (periostin, SEQ ID NO: 1)
T1 chain: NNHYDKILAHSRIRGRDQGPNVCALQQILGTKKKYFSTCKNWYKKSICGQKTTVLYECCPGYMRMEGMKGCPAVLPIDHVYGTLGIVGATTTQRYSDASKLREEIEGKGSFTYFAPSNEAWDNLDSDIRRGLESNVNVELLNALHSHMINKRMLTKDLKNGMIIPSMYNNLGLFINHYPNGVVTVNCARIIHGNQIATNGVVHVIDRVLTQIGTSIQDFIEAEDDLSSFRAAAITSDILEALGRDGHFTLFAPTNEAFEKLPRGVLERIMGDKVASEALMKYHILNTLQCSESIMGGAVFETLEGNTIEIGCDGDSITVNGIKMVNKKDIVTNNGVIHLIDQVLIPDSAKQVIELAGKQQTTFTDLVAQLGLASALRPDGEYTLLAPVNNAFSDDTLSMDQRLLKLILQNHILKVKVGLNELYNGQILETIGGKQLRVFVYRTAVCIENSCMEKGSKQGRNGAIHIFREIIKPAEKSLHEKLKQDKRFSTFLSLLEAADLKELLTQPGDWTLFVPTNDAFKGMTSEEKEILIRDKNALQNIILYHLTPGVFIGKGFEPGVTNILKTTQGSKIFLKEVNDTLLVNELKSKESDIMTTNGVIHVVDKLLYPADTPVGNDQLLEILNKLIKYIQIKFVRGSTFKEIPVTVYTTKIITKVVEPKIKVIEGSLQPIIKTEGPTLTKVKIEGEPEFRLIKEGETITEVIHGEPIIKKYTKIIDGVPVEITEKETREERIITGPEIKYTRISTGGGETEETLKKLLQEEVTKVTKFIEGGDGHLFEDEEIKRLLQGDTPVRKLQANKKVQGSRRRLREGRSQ

B1: human CatK of SEQ ID NO: 19 (Cathepsin K) (protein)
chain: APDSVDYRKKGYVTPVKNQGQCGSCWAFSSVGALEGQLKKKTGKLLNLSPQNLVDCVSENDGCGGGYMTNAFQYVQKNRGIDSEDAYPYVGQEESCMYNPTGKAAKCRGYREIPEGNEKALKRAVARVGPVSVAIDASLTSFQFYSKGVYYDESCNSDNLNHAVLAVGYGIQKGNKHWIIKNSWGENWGNKGYILMARNKNNACGIANLASFPKM
- CatK digestion of human recombinant POSTN (SDS-PAGE, LC-MS/MS): human POSTN is a substrate to CatK-dependent enzymatic digestion that is generating large amount of several peptides

— US20180284135A1
